The values that follow come from the supplement of paper PMC11908140.

B1: library; numbered along this chain (parent)
chain: MRKPRAAVGSGHRKQAASQEGRQKHAKNNSQAKPSACDGLARQPEEVVLQASVSSYHLFRDVAEVTAFRGSLLSWYDQEKRDLPWRRRAEDEMDLDRRAYAVWVSEVMLQQTQVATVINYYTGWMQKWPTLQDLASASLEEVNQLWAGLGYYSRGRRLQEGARKVVEELGGHMPRTAETLQQLLPGVGRYTAGAIASIAFGQATGVVDGNVARVLCRVRAIGADPSSTLVSQQLWGLAQQLVDPARPGDFNQAAMELGATVCTPQRPLCSQCPVESLCRARQRVEQEQLLASGSLSGSPDVEECAPNTGQCHLCLPPSEPWDQTLGVVNFPRKASRKPPREESSATCVLEQPGALGAQILLVQRPNSGLLAGLWEFPSVTWEPSEQLQRKALLQELQRWAGPLPATHLRHLGEVVHTFSHIKLTYQVYGLALEGQTPVTTVPPGARWLTQEEFHTAAVSTAMKKVFRVYQGQQPGTCMGSKRSQVSSPCSRKKPRMGQQVLDNFFRSHISTDAHSLNSAAQ
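Also: cells sorted at 72 h after reporter transfection.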

In this data set the parent is B1. Nature of the data set: 8OG:A repair function score (normalized; synonymous = 0, nonsense = -1) (normalized log-likelihood score); higher = more repair activity (WT-like). Conditions: with 8OG:A DNA repair reporter (GFP) in HEK-293 MUTYH KO cells. Put shortly: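 Lentiviral MUTYH cDNA NNN codon-scan libraries were expressed in MUTYH knockout HEK-293 cells with 10 pg/ml doxycycline, and the cells received an 8OG:A GFP repair reporter together with mCherry. At 72 h, viable mCherry+ cells went into GFP+ (repair) or GFP− bins, three replicates per tile, before tile amplicons were sequenced. A repair function score was then built from per-tile Rosace fitness scores, anchored on the synonymous and nonsense distributions. Synonymous medians sat at 0 and nonsense at -1, and variants under 300 counts per million at the start were left out.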
In the case of MRKPRAAVGSGHRKQAASQEGRQKHAKNNSQAKPSACDGLARQPEEVVLQASVSSYHLFRDVAEVTAFRGSLLSWYDQEKRDLPWRRRAEDEMDLDRRAYAVWVSEVMLQQTQVATVINYYTGWMQKWPTLQDLASASLEEVNQLWAGLGYYSRGRRLQEGARKVVEELGGHMPRTAETLQQLLPGVGRYTAGAIASIAFGQATGVVDGNVARVLCRVRAIGADPSSTLVSQQLWGLAQQLVDPARPGDFNQAAMELGATVCTPQRPLCSQCPVESLCRARQRVEQEQLLASGSLSGSPDVEECAPNTGQCHLCLPPSEPWDQTLGVVNFPRKASRKPPREESSATCVLEQPGALGAQILLVQRPNSGLLAGLWEFPSVTWEPSEQLQRKALLQELQRWAGPLPATHLRHLGEVVHTFSHIKLTYQVYGLALEGQTPVTTVPPGARWLTQEEFHTAAVSTAMKKVFRVYQGQQPGTCMGSKRSQVSSPCSRKKPRMGQQTLDNFFRSHISTDAHSLNSAAQ [V500T], the “8OG:A repair function score” value was determined as 0.02.
The value for MRKPRAAVGSGHRKQAASQEGRQKHAKNNSQAKPSACDGLARQPEEVVLQASVSSYHLFRDVAEVTAFRGSLLSWYDQEKRDLPWRRRAEDEMDLDRRAYAVWVSEVMLQQTQVATVINYYTGWMQKWPTLQDLASASLEEVNQLWAGLGYYSRGRRLQEGARKVVEELGGHMPRTAETLQQLLPGVGRYTAGAIASIAFGQATGVVDGNVARVLCRVRAIGADPSSTLVSQQLWGLAQQLVDPARPGDFNQAAMELGATVCTPQRPLCSQCPVESLCRARQRVEQEQLLASGSLSGSPDVEECAPNTGQCHLCLPPSEPWDQTLGVVNFPRKASRKPPREESSATCVLEQPGALGAQILLVQRPNSGLLAGLWEFPSVTWEPSEQLQRKALLQELQRWAGPLPATHLRHLGEVVHTFSHIKLTYQVYGLALEGQTPVTTVPPGARWLTQEEFHTAAVSTAMKKVFRVYQGQQPGTCMGSKRSQVSSPCSRKKPRMGQQQLDNFFRSHISTDAHSLNSAAQ [V500Q] was 0.00719; that for MRKPRAAVGSGHRKQAASQEGRQKHAKNNSQAKPSACDGLARQPEEVVLQASVSSYHLFRDVAEVTAFRGSLLSWYDQEKRDLPWRRRAEDEMDLDRRAYAVWVSEVMLQQTQVATVINYYTGWMQKWPTLQDLASASLEEVNQLWAGLGYYSRGRRLQEGARKVVEELGGHMPRTAETLQQLLPGVGRYTAGAIASIAFGQATGVVDGNVARVLCRVRAIGADPSSTLVSQQLWGLAQQLVDPARPGDFNQAAMELGATVCTPQRPLCSQCPVESLCRARQRVEQEQLLASGSLSGSPDVEECAPNTGQCHLCLPPSEPWDQTLGVVNFPRKASRKPPREESSATCVLEQPGALGAQILLVQRPNSGLLAGLWEFPSVTWEPSEQLQRKALLQELQRWAGPLPATHLRHLGEVVHTFSHIKLTYQVYGLALEGQTPVTTVPPGARWLTQEEFHTAAVSTAMKKVFRVYQGQQPGTCMGSKRSQVSSPCSRKKPRMGQQWLDNFFRSHISTDAHSLNSAAQ [V500W] was -0.015; that for MRKPRAAVGSGHRKQAASQEGRQKHAKNNSQAKPSACDGLARQPEEVVLQASVSSYHLFRDVAEVTAFRGSLLSWYDQEKRDLPWRRRAEDEMDLDRRAYAVWVSEVMLQQTQVATVINYYTGWMQKWPTLQDLASASLEEVNQLWAGLGYYSRGRRLQEGARKVVEELGGHMPRTAETLQQLLPGVGRYTAGAIASIAFGQATGVVDGNVARVLCRVRAIGADPSSTLVSQQLWGLAQQLVDPARPGDFNQAAMELGATVCTPQRPLCSQCPVESLCRARQRVEQEQLLASGSLSGSPDVEECAPNTGQCHLCLPPSEPWDQTLGVVNFPRKASRKPPREESSATCVLEQPGALGAQILLVQRPNSGLLAGLWEFPSVTWEPSEQLQRKALLQELQRWAGPLPATHLRHLGEVVHTFSHIKLTYQVYGLALEGQTPVTTVPPGARWLTQEEFHTAAVSTAMKKVFRVYQGQQPGTCMGSKRSQVSSPCSRKKPRMGQQPLDNFFRSHISTDAHSLNSAAQ [V500P] was -0.0532.
The value for MRKPRAAVGSGHRKQAASQEGRQKHAKNNSQAKPSACDGLARQPEEVVLQASVSSYHLFRDVAEVTAFRGSLLSWYDQEKRDLPWRRRAEDEMDLDRRAYAVWVSEVMLQQTQVATVINYYTGWMQKWPTLQDLASASLEEVNQLWAGLGYYSRGRRLQEGARKVVEELGGHMPRTAETLQQLLPGVGRYTAGAIASIAFGQATGVVDGNVARVLCRVRAIGADPSSTLVSQQLWGLAQQLVDPARPGDFNQAAMELGATVCTPQRPLCSQCPVESLCRARQRVEQEQLLASGSLSGSPDVEECAPNTGQCHLCLPPSEPWDQTLGVVNFPRKASRKPPREESSATCVLEQPGALGAQILLVQRPNSGLLAGLWEFPSVTWEPSEQLQRKALLQELQRWAGPLPATHLRHLGEVVHTFSHIKLTYQVYGLALEGQTPVTTVPPGARWLTQEEFHTAAVSTAMKKVFRVYQGQQPGTCMGSKRSQVSSPCSRKKPRMGQQLLDNFFRSHISTDAHSLNSAAQ [V500L] was 0.00153.
Regarding MRKPRAAVGSGHRKQAASQEGRQKHAKNNSQAKPSACDGLARQPEEVVLQASVSSYHLFRDVAEVTAFRGSLLSWYDQEKRDLPWRRRAEDEMDLDRRAYAVWVSEVMLQQTQVATVINYYTGWMQKWPTLQDLASASLEEVNQLWAGLGYYSRGRRLQEGARKVVEELGGHMPRTAETLQQLLPGVGRYTAGAIASIAFGQATGVVDGNVARVLCRVRAIGADPSSTLVSQQLWGLAQQLVDPARPGDFNQAAMELGATVCTPQRPLCSQCPVESLCRARQRVEQEQLLASGSLSGSPDVEECAPNTGQCHLCLPPSEPWDQTLGVVNFPRKASRKPPREESSATCVLEQPGALGAQILLVQRPNSGLLAGLWEFPSVTWEPSEQLQRKALLQELQRWAGPLPATHLRHLGEVVHTFSHIKLTYQVYGLALEGQTPVTTVPPGARWLTQEEFHTAAVSTAMKKVFRVYQGQQPGTCMGSKRSQVSSPCSRKKPRMGQQNLDNFFRSHISTDAHSLNSAAQ [V500N], the “8OG:A repair function score” value was -0.0108.
The value for MRKPRAAVGSGHRKQAASQEGRQKHAKNNSQAKPSACDGLARQPEEVVLQASVSSYHLFRDVAEVTAFRGSLLSWYDQEKRDLPWRRRAEDEMDLDRRAYAVWVSEVMLQQTQVATVINYYTGWMQKWPTLQDLASASLEEVNQLWAGLGYYSRGRRLQEGARKVVEELGGHMPRTAETLQQLLPGVGRYTAGAIASIAFGQATGVVDGNVARVLCRVRAIGADPSSTLVSQQLWGLAQQLVDPARPGDFNQAAMELGATVCTPQRPLCSQCPVESLCRARQRVEQEQLLASGSLSGSPDVEECAPNTGQCHLCLPPSEPWDQTLGVVNFPRKASRKPPREESSATCVLEQPGALGAQILLVQRPNSGLLAGLWEFPSVTWEPSEQLQRKALLQELQRWAGPLPATHLRHLGEVVHTFSHIKLTYQVYGLALEGQTPVTTVPPGARWLTQEEFHTAAVSTAMKKVFRVYQGQQPGTCMGSKRSQVSSPCSRKKPRMGQQMLDNFFRSHISTDAHSLNSAAQ [V500M] was 0.0185; that for MRKPRAAVGSGHRKQAASQEGRQKHAKNNSQAKPSACDGLARQPEEVVLQASVSSYHLFRDVAEVTAFRGSLLSWYDQEKRDLPWRRRAEDEMDLDRRAYAVWVSEVMLQQTQVATVINYYTGWMQKWPTLQDLASASLEEVNQLWAGLGYYSRGRRLQEGARKVVEELGGHMPRTAETLQQLLPGVGRYTAGAIASIAFGQATGVVDGNVARVLCRVRAIGADPSSTLVSQQLWGLAQQLVDPARPGDFNQAAMELGATVCTPQRPLCSQCPVESLCRARQRVEQEQLLASGSLSGSPDVEECAPNTGQCHLCLPPSEPWDQTLGVVNFPRKASRKPPREESSATCVLEQPGALGAQILLVQRPNSGLLAGLWEFPSVTWEPSEQLQRKALLQELQRWAGPLPATHLRHLGEVVHTFSHIKLTYQVYGLALEGQTPVTTVPPGARWLTQEEFHTAAVSTAMKKVFRVYQGQQPGTCMGSKRSQVSSPCSRKKPRMGQQSLDNFFRSHISTDAHSLNSAAQ [V500S] was 0.00727.
The value for MRKPRAAVGSGHRKQAASQEGRQKHAKNNSQAKPSACDGLARQPEEVVLQASVSSYHLFRDVAEVTAFRGSLLSWYDQEKRDLPWRRRAEDEMDLDRRAYAVWVSEVMLQQTQVATVINYYTGWMQKWPTLQDLASASLEEVNQLWAGLGYYSRGRRLQEGARKVVEELGGHMPRTAETLQQLLPGVGRYTAGAIASIAFGQATGVVDGNVARVLCRVRAIGADPSSTLVSQQLWGLAQQLVDPARPGDFNQAAMELGATVCTPQRPLCSQCPVESLCRARQRVEQEQLLASGSLSGSPDVEECAPNTGQCHLCLPPSEPWDQTLGVVNFPRKASRKPPREESSATCVLEQPGALGAQILLVQRPNSGLLAGLWEFPSVTWEPSEQLQRKALLQELQRWAGPLPATHLRHLGEVVHTFSHIKLTYQVYGLALEGQTPVTTVPPGARWLTQEEFHTAAVSTAMKKVFRVYQGQQPGTCMGSKRSQVSSPCSRKKPRMGQQHLDNFFRSHISTDAHSLNSAAQ [V500H] was 0.0251; that for MRKPRAAVGSGHRKQAASQEGRQKHAKNNSQAKPSACDGLARQPEEVVLQASVSSYHLFRDVAEVTAFRGSLLSWYDQEKRDLPWRRRAEDEMDLDRRAYAVWVSEVMLQQTQVATVINYYTGWMQKWPTLQDLASASLEEVNQLWAGLGYYSRGRRLQEGARKVVEELGGHMPRTAETLQQLLPGVGRYTAGAIASIAFGQATGVVDGNVARVLCRVRAIGADPSSTLVSQQLWGLAQQLVDPARPGDFNQAAMELGATVCTPQRPLCSQCPVESLCRARQRVEQEQLLASGSLSGSPDVEECAPNTGQCHLCLPPSEPWDQTLGVVNFPRKASRKPPREESSATCVLEQPGALGAQILLVQRPNSGLLAGLWEFPSVTWEPSEQLQRKALLQELQRWAGPLPATHLRHLGEVVHTFSHIKLTYQVYGLALEGQTPVTTVPPGARWLTQEEFHTAAVSTAMKKVFRVYQGQQPGTCMGSKRSQVSSPCSRKKPRMGQQRLDNFFRSHISTDAHSLNSAAQ [V500R] was 0.00797.
The value for MRKPRAAVGSGHRKQAASQEGRQKHAKNNSQAKPSACDGLARQPEEVVLQASVSSYHLFRDVAEVTAFRGSLLSWYDQEKRDLPWRRRAEDEMDLDRRAYAVWVSEVMLQQTQVATVINYYTGWMQKWPTLQDLASASLEEVNQLWAGLGYYSRGRRLQEGARKVVEELGGHMPRTAETLQQLLPGVGRYTAGAIASIAFGQATGVVDGNVARVLCRVRAIGADPSSTLVSQQLWGLAQQLVDPARPGDFNQAAMELGATVCTPQRPLCSQCPVESLCRARQRVEQEQLLASGSLSGSPDVEECAPNTGQCHLCLPPSEPWDQTLGVVNFPRKASRKPPREESSATCVLEQPGALGAQILLVQRPNSGLLAGLWEFPSVTWEPSEQLQRKALLQELQRWAGPLPATHLRHLGEVVHTFSHIKLTYQVYGLALEGQTPVTTVPPGARWLTQEEFHTAAVSTAMKKVFRVYQGQQPGTCMGSKRSQVSSPCSRKKPRMGQQILDNFFRSHISTDAHSLNSAAQ [V500I] was 0.0202; that for MRKPRAAVGSGHRKQAASQEGRQKHAKNNSQAKPSACDGLARQPEEVVLQASVSSYHLFRDVAEVTAFRGSLLSWYDQEKRDLPWRRRAEDEMDLDRRAYAVWVSEVMLQQTQVATVINYYTGWMQKWPTLQDLASASLEEVNQLWAGLGYYSRGRRLQEGARKVVEELGGHMPRTAETLQQLLPGVGRYTAGAIASIAFGQATGVVDGNVARVLCRVRAIGADPSSTLVSQQLWGLAQQLVDPARPGDFNQAAMELGATVCTPQRPLCSQCPVESLCRARQRVEQEQLLASGSLSGSPDVEECAPNTGQCHLCLPPSEPWDQTLGVVNFPRKASRKPPREESSATCVLEQPGALGAQILLVQRPNSGLLAGLWEFPSVTWEPSEQLQRKALLQELQRWAGPLPATHLRHLGEVVHTFSHIKLTYQVYGLALEGQTPVTTVPPGARWLTQEEFHTAAVSTAMKKVFRVYQGQQPGTCMGSKRSQVSSPCSRKKPRMGQQKLDNFFRSHISTDAHSLNSAAQ [V500K] was -0.0181.
